Experimental data as given in patent US20050260657A1 (UNIVERSITY OF TOKYO, published 2005).
Substitutions are numbered along the chain they refer to. In names and notes the source's numbering stands.

B1: GST-1L3V (glutathione S-transferase fused L3V domain of IP3R1) (other, not shown: a dimerising Fc or GST; large carriers; small tags and cut ends)
chain: KDDFILEVDRLPNETAVPETGESLANDFLYSDVCRVETGENCTSPAPKEELLPAEETEQDKEHTCE
notes: Expressed in E. coli, purified on GSH-Sepharose; also called GST-L3V
B2: MBP-ERp44 (maltose binding protein fused ERp44) (other, mouse, UniProt Q9D1Q6 30-406, looked up, not shown: large carriers)
chain: EIASLDSENIDEILNNADVALVNFYADWCRFSQMLHPIFEEASDVIKEEYPDKNQVVFARVDCDQHSDIAQRYRISKYPTLKLFRNGMMMKREYRGQRSVKALADYIRQQKSNPVHEIQSLDEVTNLDRSKRNIIGYFEQKDSENYRVFERVASILHDDCAFLSAFGDLSKPERYNGDNVIYKPPGRSAPDMVYLGSMTNFDVTYNWIQDKCVPLVREITFENGEELTEEGLPFLILFHMKDDTESLEIFQNEVARQLISEKGTINFLHADCDKFRHPLLHIQKTPADCPVIAIDSFRHMYVFGDFKDVLIPGKLKQFVFDLHSGKLHREFHHGPDPTDTAPGEQDQDVASSPPESSFQKLAPSEYRYTLLRDRDEL
B3: HA-ERp44 (haemagglutinin A epitope-tagged ERp44) (other, mouse, UniProt Q9D1Q6 30-406, looked up, not shown: small tags and cut ends)
chain: B2 chain
notes: whole, on cells; tagged vectors made by PCR
B4: ERp44-C58S (other, UniProt Q9D1Q6 30-406, looked up)
chain: B2 chain with C29S
notes: whole, on cells

Tests used:
[1] = target: MBP (maltose binding protein alone) (UniProt P0AEX9 27-392 = MBP); experiment: GST pull-down, pH 5.2, 4 mM Ca2+
[2] = target: B2; experiment: GST pull-down, acid buffer with Ca2+
[3] = target: IP3R1 of mouse cerebellar microsomes in planar lipid bilayer (mouse, UniProt P11881 1-2749); experiment: cell-based or functional assay
[4] = target: T1, GFP-IP3R1 (IP3R1 fused N-terminally with green fluorescent protein) (UniProt P11881 1-2749); experiment: co-immunoprecipitation from COS-7 cells exposed to ATP (activator of purinergic receptors), DSP crosslink
T1 construct: Expressed in COS-7 or DT40-TKO cells; also called GFP-IP3R1-N; not shown: green fluorescent protein

[5] = target: T2, IP3R1 (inositol 1,4,5-trisphosphate receptor type 1), untagged, expressed in cells (mouse, UniProt P11881 1-2749); experiment: interaction in transfected cells; data not shown
T2 construct: whole, on cells; ER membrane channel; species is printed for the DT40-KMN60 line, not for the COS-7 vector; also called mouse IP3R1 in DT40-KMN60 cells
T2 sequence (P11881 whole entry): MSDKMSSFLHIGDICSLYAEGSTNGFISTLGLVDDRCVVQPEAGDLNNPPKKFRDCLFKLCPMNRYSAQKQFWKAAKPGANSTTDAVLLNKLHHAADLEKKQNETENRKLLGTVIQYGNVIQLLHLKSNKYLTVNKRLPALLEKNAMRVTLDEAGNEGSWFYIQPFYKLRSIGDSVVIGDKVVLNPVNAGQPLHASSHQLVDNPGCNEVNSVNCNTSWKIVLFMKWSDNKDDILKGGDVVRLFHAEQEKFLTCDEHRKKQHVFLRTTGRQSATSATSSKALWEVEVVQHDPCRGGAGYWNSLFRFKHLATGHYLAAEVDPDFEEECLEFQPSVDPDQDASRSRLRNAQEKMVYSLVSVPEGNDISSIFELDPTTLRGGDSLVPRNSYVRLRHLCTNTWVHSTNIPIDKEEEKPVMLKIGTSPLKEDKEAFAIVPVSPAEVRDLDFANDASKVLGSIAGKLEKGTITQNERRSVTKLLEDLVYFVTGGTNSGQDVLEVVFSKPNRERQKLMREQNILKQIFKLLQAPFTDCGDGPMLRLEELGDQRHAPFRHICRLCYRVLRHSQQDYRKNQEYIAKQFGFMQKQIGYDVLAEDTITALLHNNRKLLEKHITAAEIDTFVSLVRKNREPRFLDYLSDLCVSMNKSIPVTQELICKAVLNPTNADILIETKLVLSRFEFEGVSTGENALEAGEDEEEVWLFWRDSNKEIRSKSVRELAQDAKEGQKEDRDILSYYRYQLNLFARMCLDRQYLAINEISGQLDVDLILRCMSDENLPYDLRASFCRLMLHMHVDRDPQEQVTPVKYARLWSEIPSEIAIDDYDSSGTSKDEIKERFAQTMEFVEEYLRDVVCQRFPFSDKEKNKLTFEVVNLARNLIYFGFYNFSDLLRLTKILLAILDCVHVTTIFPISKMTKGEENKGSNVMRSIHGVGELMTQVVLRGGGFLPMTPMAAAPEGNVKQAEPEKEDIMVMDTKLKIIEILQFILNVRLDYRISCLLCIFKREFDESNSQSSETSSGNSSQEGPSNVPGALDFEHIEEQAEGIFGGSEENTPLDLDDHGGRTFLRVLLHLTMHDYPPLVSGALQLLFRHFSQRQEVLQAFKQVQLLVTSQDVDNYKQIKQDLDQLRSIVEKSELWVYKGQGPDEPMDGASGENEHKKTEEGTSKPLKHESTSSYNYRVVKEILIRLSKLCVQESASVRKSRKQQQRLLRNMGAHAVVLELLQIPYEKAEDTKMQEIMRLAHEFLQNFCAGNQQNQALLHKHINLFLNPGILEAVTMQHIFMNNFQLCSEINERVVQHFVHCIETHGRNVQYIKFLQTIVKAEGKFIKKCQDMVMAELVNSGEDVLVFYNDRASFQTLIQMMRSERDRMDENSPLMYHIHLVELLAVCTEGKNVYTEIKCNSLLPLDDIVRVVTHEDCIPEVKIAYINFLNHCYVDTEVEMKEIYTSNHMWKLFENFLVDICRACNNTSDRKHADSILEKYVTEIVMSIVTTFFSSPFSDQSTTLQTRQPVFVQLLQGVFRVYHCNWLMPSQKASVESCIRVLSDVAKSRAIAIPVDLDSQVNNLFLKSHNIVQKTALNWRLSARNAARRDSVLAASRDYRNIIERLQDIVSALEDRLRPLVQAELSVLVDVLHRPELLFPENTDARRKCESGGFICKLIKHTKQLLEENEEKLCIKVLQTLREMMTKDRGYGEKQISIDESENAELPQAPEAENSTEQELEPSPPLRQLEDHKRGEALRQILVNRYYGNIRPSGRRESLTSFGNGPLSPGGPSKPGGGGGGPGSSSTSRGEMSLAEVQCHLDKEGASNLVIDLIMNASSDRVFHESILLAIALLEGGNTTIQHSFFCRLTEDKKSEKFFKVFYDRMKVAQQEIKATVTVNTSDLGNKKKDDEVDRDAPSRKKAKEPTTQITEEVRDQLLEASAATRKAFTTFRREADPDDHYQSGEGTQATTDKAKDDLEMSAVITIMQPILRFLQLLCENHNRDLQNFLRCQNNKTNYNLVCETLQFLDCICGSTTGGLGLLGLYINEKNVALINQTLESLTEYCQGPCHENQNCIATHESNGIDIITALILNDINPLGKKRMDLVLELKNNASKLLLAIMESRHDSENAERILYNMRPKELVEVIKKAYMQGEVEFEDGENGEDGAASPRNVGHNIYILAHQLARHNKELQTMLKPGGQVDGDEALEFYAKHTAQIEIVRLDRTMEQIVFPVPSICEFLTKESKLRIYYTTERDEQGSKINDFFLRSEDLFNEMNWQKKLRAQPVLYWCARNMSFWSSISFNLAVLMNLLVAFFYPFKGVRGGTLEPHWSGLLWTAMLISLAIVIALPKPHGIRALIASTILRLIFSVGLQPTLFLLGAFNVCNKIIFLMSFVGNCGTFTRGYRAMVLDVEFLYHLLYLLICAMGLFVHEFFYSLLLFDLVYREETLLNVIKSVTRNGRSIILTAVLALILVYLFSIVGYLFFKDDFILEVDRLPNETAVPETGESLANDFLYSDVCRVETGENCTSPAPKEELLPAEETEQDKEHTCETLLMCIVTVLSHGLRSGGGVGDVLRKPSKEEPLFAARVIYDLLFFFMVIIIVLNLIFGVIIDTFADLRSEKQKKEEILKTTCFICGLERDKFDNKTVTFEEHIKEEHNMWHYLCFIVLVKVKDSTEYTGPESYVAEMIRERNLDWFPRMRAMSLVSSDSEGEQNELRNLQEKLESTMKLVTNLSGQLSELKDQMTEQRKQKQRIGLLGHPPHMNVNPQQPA

B1
binding result [1]: no binding | binding result [2]: binds

B2
Single-channel open probability (IC50) [3]: 1000 nM

B3
fold increase of GFP-IP3R1 co-precipitated with HA-ERp44 after the treatment against untreated cells [4]: ~2 fold

B4
binding result [5]: binds
